This is an account of results in paper doi:10.1101/2020.09.01.278291 (bioRxiv, 2020).

This test deals with LRH-1 ligand binding domain (LBD), residues 299-541, His tag cleaved (human, UniProt O00482 299-541). Kind of test: crystal structure.
Chain of LRH-1 ligand binding domain (LBD), residues 299-541, His tag cleaved (O00482 299-541): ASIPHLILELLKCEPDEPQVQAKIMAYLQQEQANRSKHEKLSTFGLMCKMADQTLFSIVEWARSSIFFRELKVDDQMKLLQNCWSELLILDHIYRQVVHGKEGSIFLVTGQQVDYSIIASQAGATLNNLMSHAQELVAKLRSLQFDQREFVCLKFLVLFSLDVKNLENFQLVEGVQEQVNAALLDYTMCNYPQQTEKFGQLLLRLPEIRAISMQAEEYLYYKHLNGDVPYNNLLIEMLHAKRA

As to KENALLRYLLDK [Tif2 peptide (transcriptional intermediary factor 2 coregulator peptide)], the binding result is recorded as “binds”.
